This is an account of results in patent US7897568B2, “Compositions for treatment of cancer” (priority 2006, dated 2011).

The test system of assay [1] is MCF7-Neo cells. Put plainly: Microinjection of ANK peptide then nocodazole, mitotic arrest/apoptosis count. In kind it is cell-based. Particulars: MCF7-Neo5 cells, ANK peptide microinjected, nocodazole treated; versus uninjected. How it is done:
(§1) ANK peptide interference with SNCG-BubR1 association in vivo was examined in a stable breast cancer cell line MCF7 expressing SNCG (MCF7-SNCG) and a control SNCG negative cell line (MCF7-Neo). […] Significant numbers of cells survived after treatment with the ANK peptide by microinjection in both cell lines. After microinjection, cells were treated with 0.5 μM nocodazole for 24 hours and the fraction of mitotically arrested cells was counted.
(§2) MCF7-SNCG and MCF-Neo were grown to 80% confluence, split with trypsin and seeded on a 22 mm glass coverslip treated with human fibronectin ([…]) into 60 mm diameter dishes containing cell maintenance medium for 24 hours and utilized for the experiments. In initial experiments ANK peptide (5, 10 or 100 μM) was microinjected. In all further experiment to date, ANK peptide (10 μM), together with goat IgG (1 mg/ml) and fluoroscein isothiocyanate (FITC, 5 mg/ml; Molecular Probes) into the MCF7-SNCG or MCF7-Neo cells under a 40× magnification of phase contrast microscope (Carl Zeiss Inc.) using a pressure injection system (Femtojet, Eppendorf). To exclude the possibility that microinjection might affect cell cycle and proliferation, MCF7-Neo and MCF7-SNCG were microinjected with goat IgG as a control. Injections were done at a constant flow setup by varying the injection pressure Pc between 40-70 units. The microscope stage was kept at 37° C. using thermal control device (Tempcontrol-37-2 Digital). Approximately 25-30 cells were microinjected in each experiment (n=3). Cells were quickly incubated to revive. […]
(§3) For the immunofluorescence experiments, cells were fixed in 0.5% buffered paraformaldehyde for 8 minutes at room temperature. […] Cells were scored by identifying cells containing Alexa Fluor 488 excited at 488 nm, and the emission measured at 500-535 nm; DAPI was excited at 345 nm and the emission was measured at 445 nm. […] Mitotic index was determined as described by Gupta et al. (Oncogene 2003 22:7593-7599) and Inaba et al. Breast Cancer Res. Treat. […]

In assay [2] the test system is MCF7-SNCG cells. Described as above. Format: cell-based. The following applies: ANK peptide microinjected, 0.5 μM nocodazole for 24 hours; versus uninjected. How it is done:
as §1, §2, §3

In assay [3] the target is T1, GST-SNCG (Homo sapiens, UniProt O76070).
T1 construct: The SNCG coding region was amplified from the human cDNA clone; made in house; host or cells: Escherichia coli BL21 (DE3)
T1 sequence (O76070 whole entry): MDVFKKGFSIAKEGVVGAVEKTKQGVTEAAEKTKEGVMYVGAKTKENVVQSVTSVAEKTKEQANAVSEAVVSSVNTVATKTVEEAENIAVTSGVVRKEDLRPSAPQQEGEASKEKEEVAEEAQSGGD
Put plainly: Isothermal titration calorimetry of ANK peptide into GST-SNCG. Particulars: ITC, first binding site.
Method: The heat of dilution was measured by titrating ANK peptide in buffer alone. This was generally small and subtracted from each binding titration curve.
Titration calorimetry measurements were performed with a VP-ITC calorimeter (Microcal, Northampton, Mass.). The protein solution for ITC was dialyzed extensively overnight against 10 mM phosphate buffer, pH 7.0. The peptide solution was prepared by diluting with the buffer used for the protein dialysis. Injections (6 μl×50) of peptide (400 μM) were done by means of a rotating stirrer-syringe to the reaction cell, containing 1.43 ml of the 50 μM protein solution. The heat of dilution was determined to be negligible in separate titrations of the ligand into the buffer solution. Calorimetric data analysis was carried out with ORIGIN 5.0 software (MicroCal). Binding parameters such as the number of binding sites, the binding constant, and the binding enthalpy of bound ligand were determined by fitting the experimental binding isotherms.

In assay [4] the target is T2, SNCG-BubR1 interaction (Homo sapiens, UniProt O76070).
T2 construct: expressed in transfected cells; host or cells: COS7
T2 sequence (O76070 whole entry): as above
Put plainly: Co-immunoprecipitation of SNCG and myc-BubR1 with or without EGFP-ANK in COS7 cells. In kind it is cell-based. The following applies: COS7 cells expressing BubR1, SNCG and EGFP-ANK.

Assay [5] addresses T3, SNCG (Homo sapiens, UniProt O76070). Put plainly: Co-localization of EGFP-ANK with SNCG by confocal microscopy. Format: cell-based. Set-up: expressed in transfected cells; host or cells: MCF7-SNCG (MCF7 stably expressing SNCG). Particulars: green fluorescent signals in transfected cells. An excerpt:
FIGS. 5A through 5D show co-localization, co-immunoprecipitation (co-IP) and GST pull down experiments, using an enhance green fluorescent protein (EGFP)-ANK fusion protein, which confirm that SNCG associates with the ANK peptide in vivo. FIG. 5A is a western blot depicting detection of EGFP-ANK expression in COS7 cells. Lanes 2 and 3 were samples transfected with different clones, cl-4 and cl-8, respectively, of pEGFP-ANK plasmid. In FIG. 5B, MCF7-SNCG cells were transfected with pEGFP-ANK, fixed on a cover slip, permeabilized and probed with anti-SNCG and anti-GFP antibodies to observe co-localization. Fluorescent cells were visualized using an ×100 objective (oil) on an inverted confocal microscope (Leica). FIGS. 5C and 5D are western blots showing association of SNCG and ANK peptide as evidenced by co-IP of SNCG with EGFP-ANK in MCF7-SNCG and MCF7-neo cells. In these experiments, MCF7-SNCG and MCF7-neo cells were transfected with pEGFP-ANK or pEGFP plasmids. […]
To further examine the utility of the ANK peptide as a therapeutic tool against SNCG-caused drug resistance, this peptide was expressed in breast cancer cells. ANK peptide nucleotide sequences were cloned into pEGFP-C2 vector (pEGFP-ANK), and ANK peptide was expressed as a fusion protein with its amino-terminal linked to EGFP protein. […]

For assay [6], the target named is T3, SNCG. Put plainly: Co-immunoprecipitation of EGFP-ANK with anti-SNCG antibody. In kind it is binding. Set-up: expressed in transfected cells; host or cells: MCF7-SNCG (MCF7 stably expressing SNCG).

Where a SMILES comes first, the peptide text is derived from it. Where no end group is shown, it is not given here.

T3 sequence (O76070 whole entry, the tested form may be a part): as the sequence (O76070 whole entry) above

With `CC[C@H](C)[C@H](NC(=O)[C@H](CS)NC(=O)CNC(=O)[C@H](CC(C)C)NC(=O)[C@H](Cc1c[nH]cn1)NC(=O)CNC(=O)[C@H](Cc1c[nH]cn1)NC(=O)[C@H](CCC(N)=O)NC(=O)[C@H](CO)NC(=O)[C@H](C)NC(=O)[C@@H](NC(=O)[C@H](Cc1c[nH]cn1)NC(=O)[C@H](CC(C)C)NC(=O)[C@H](C)NC(=O)[C@H](CO)NC(=O)[C@H](CC(N)=O)NC(=O)CNC(=O)[C@H](CCCCN)NC(C)=O)C(C)C)C(=O)N[C@@H](CCC(N)=O)C(=O)N[C@H](C(=O)N[C@@H](CC(C)C)C(=O)N[C@H](C(=O)N[C@@H](CCCNC(=N)N)C(=O)N[C@@H](Cc1ccc(O)cc1)C(=O)NCC(=O)N[C@@H](C)C(=O)N[C@@H](CC(N)=O)C(=O)N[C@H](C(=O)N[C@H](C(=O)N[C@@H](CCSC)C(=O)N[C@@H](CCC(N)=O)C(=O)N[C@@H](CC(N)=O)C(=O)N[C@@H](Cc1c[nH]cn1)C(=O)NCC(N)=O)[C@@H](C)O)C(C)C)C(C)C)[C@@H](C)O` [ANK peptide] (Ac-KGNSALHVASQHGHLGCIQTLVRYGANVTMQNHG-NH2), in assay [1], the “number of cells undergoing mitotic arrest/apoptosis” value is reported as “not significantly affected”. Further, the “level of mitotically arrested cells” value in assay [2] is reported as “significantly (p<0.05) increased”. This compound also registered a ΔH in assay [3] of 2.174 ± 0.2 kcal/mol.

Turning to “EGFP-ANK: ANK peptide expressed as a fusion protein with its amino-terminal linked to EGFP protein, approximately 37 kDa ({EGFP}-KGNSALHVASQHGHLGCIQTLVRYGANVTMQNHG)”, the “myc-BubR1 signal in anti-SNCG IP complex” value in assay [4] is given as “not detected”. The “intracellular localization relative to SNCG” value in assay [5] is listed as “co-localized with SNCG in the cytoplasm”. In assay [6] (MCF7-SNCG cells transfected with pEGFP-ANK, western blot with anti-GFP), the “co-precipitation with SNCG in anti-SNCG IP complexes” value is given as “co-precipitate with SNCG”. Also, in assay [6] (MCF7-neo cells (SNCG negative control)), the “presence in anti-SNCG IP complexes” value is recorded as “not in the IP complexes”.
